US20240209100A1 (DIAGONAL THERAPEUTICS, published 2024)

T1: IL-18 receptor (IL-18Rα/IL-18Rβ) overexpressed on HEK-Blue IL-18 cells (Homo sapiens (Human), UniProt Q13478 19-541; O95256 20-599)
T1 sequence 1: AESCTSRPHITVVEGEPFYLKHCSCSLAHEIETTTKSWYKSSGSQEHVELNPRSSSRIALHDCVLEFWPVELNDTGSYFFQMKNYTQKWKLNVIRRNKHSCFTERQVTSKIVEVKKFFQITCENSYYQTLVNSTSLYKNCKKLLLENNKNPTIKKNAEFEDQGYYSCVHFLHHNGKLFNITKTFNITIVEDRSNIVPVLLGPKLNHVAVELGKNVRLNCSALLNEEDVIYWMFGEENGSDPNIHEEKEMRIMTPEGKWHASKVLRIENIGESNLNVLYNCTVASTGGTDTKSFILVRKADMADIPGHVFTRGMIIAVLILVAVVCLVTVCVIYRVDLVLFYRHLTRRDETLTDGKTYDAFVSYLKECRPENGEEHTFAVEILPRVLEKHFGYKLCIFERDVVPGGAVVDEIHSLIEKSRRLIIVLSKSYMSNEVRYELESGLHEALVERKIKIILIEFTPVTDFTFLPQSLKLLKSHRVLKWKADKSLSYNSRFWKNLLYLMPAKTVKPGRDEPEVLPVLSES
T1 sequence 2: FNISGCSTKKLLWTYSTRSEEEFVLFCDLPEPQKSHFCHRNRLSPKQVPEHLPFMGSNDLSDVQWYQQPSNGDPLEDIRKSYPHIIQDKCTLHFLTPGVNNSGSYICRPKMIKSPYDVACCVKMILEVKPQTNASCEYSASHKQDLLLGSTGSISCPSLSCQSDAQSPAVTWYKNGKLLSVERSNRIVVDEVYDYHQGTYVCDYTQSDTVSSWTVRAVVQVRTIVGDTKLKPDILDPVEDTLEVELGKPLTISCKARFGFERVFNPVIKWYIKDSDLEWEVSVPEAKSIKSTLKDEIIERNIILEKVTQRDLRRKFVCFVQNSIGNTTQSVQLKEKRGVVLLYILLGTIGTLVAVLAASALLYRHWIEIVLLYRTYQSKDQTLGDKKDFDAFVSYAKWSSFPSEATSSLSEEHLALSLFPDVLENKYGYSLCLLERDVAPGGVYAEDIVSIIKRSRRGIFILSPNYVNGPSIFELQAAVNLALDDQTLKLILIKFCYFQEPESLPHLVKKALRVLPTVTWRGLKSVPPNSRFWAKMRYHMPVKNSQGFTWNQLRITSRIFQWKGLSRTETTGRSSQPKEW


Molecular target: T1, IL-18 receptor (IL-18Rα/IL-18Rβ) …
Test: cell-based or functional assay

HEK-Blue IL-18: Abs 405 | HEK-Blue IL-18: Fold over Background | Binder
0.49 Abs | 2 fold | DGL250 (bispecific antibody, V domains shown) V domain 1: QVQLVESGGGLVQAGGSLRLSCAASGRTFSKHAMGWFRQAPGKEREFVAAIDWSGGSTYYADSVKGRFTISRDNAKNTVYLQMDSLKPEDTAVYYCAADSYTDYAQLWLPELESEYDYWGQGTQVTVSS V domain 2: QLQLVESGGGLVQPGGSLRLSCAAPGRIFGLNAMGWYRQAPGKQRELVASITTGGSTNYADSGKGRFTLSRSNAQNTVYRQMNSLQPEDTAVYYCNAKRGLNLNYWGQGTQVTVSS
0.66 Abs | 2.9 fold | DGL296 (bispecific antibody, V domains shown) V domain 1: QVQLVESGGGLVQAGGSLRLSCAASGRTFSKHAMGWFRQAPGKEREFVAAIDWSGGSTYYADSVKGRFTISRDNAKNTVYLQMDSLKPEDTAVYYCAADSYTDYAQLWLPELESEYDYWGQGTQVTVSS V domain 2: QVQLVESGGDLVLPGGSLKLSCEASGSISSRNSMAWYRRAPGKQRELVAAISSISSGGRTDYADFVKGRFTIFRDTAKNMVYLQMNNLKPEDTAVYDCDDPIRVASLAYDDWGQGTQVTVSS
0.31 Abs | 1.3 fold | DGL251 (bispecific antibody, V domains shown) V domain 1: QVQLVESGGGLVQAGGSLRLSCAASGRTFSKHAMGWFRQAPGKEREFVAAIDWSGGSTYYADSVKGRFTISRDNAKNTVYLQMDSLKPEDTAVYYCAADSYTDYAQLWLPELESEYDYWGQGTQVTVSS V domain 2: EVQLVESGGGLVQTGGSLRLSCVASETITDTFRMGWYRQAPGQQRELVAAITHTSETTYGDSVTGRFTISGDTAKNMVHLQMNSLKPEDTGVYYCNIRAWRRPDYWGQGTQVTVSS
0.3 Abs | 1.2 fold | DGL254 (bispecific antibody, V domains shown) V domain 1: QVQLVESGGGLVQAGGSLRLSCAASGRTFSKHAMGWFRQAPGKEREFVAAIDWSGGSTYYADSVKGRFTISRDNAKNTVYLQMDSLKPEDTAVYYCAADSYTDYAQLWLPELESEYDYWGQGTQVTVSS V domain 2: QVQLVESGGGLVQAGGSLRLSCAASESIFSFVAMGWYRQAPGKQRELVVKISSGGSTNYADSVKGRFTISRDNAKNTVYLEMNSLKFEDTGVYYCNAVRPNGMDYWGKGTLVTVSS
0.32 Abs | 1.3 fold | DGL252 (bispecific antibody, V domains shown) V domain 1: QVQLVESGGGLVQAGGSLRLSCAASGRTFSKHAMGWFRQAPGKEREFVAAIDWSGGSTYYADSVKGRFTISRDNAKNTVYLQMDSLKPEDTAVYYCAADSYTDYAQLWLPELESEYDYWGQGTQVTVSS V domain 2: QVQLQESGGGLVQAGGSLRLSCAASASIFSRYAIGWYRQAPGKQRDLVAAITSGGTTNYADSVKGRFTISTDNAKNTVYLQMNSLKPEDTAVYSCAAGDSRANYYWGQGTQVTVSS
0.32 Abs | 1.3 fold | DGL255 (bispecific antibody, V domains shown) V domain 1: QVQLVESGGGLVQAGGSLRLSCAASGRTFSKHAMGWFRQAPGKEREFVAAIDWSGGSTYYADSVKGRFTISRDNAKNTVYLQMDSLKPEDTAVYYCAADSYTDYAQLWLPELESEYDYWGQGTQVTVSS V domain 2: QVQLVESGGGLVQPGGSLRLSCAASRITFSIYDMGWYRQAPGKQRELVASITRRGSTNYADSTKGRFTISRDNGKNTMYLQGNSLKPEDTAVYYCNARDILGRDYWGQGTQVTVSS
0.29 Abs | 1.2 fold | DGL253 (bispecific antibody, V domains shown) V domain 1: QVQLVESGGGLVQAGGSLRLSCAASGRTFSKHAMGWFRQAPGKEREFVAAIDWSGGSTYYADSVKGRFTISRDNAKNTVYLQMDSLKPEDTAVYYCAADSYTDYAQLWLPELESEYDYWGQGTQVTVSS V domain 2: QVQLQESGGGLVQAGGSPRLSCAVSGTAFNINNFMGWYRQAPGKQRELVATITGSSTTNYASSVKGRFTISRDSAKNTVYLQMNSLKPEDTAVYYCNLRRGGWYNYWGQGTQVTVSS
2.83 Abs | 12.3 fold | DGL293 (bispecific antibody, V domains shown) V domain 1: QVQLVESGGGLVQAGGSLRLSCAASGRTFSSYDMGWFRQAPGKEREFVAALRWSGGSTSYADSVKGRFTISRDNAKNTVYLHMNSLKPEDTAVYYCAATLETDSGTYWADYWGQGTQVTVSS V domain 2: QVQLVESGGDLVLPGGSLKLSCEASGSISSRNSMAWYRRAPGKQRELVAAISSISSGGRTDYADFVKGRFTIFRDTAKNMVYLQMNNLKPEDTAVYDCDDPIRVASLAYDDWGQGTQVTVSS
0.86 Abs | 3.7 fold | DGL294 (bispecific antibody, V domains shown) V domain 1: EVQLVESGGGLVQPGGSLRLSCAASGSIFSINAMGWYRQAPGKQREVVATSTGGGMTNYADSVKGRFTISRDNAKNTVYLQMNSLKPEDTAVYYCNADKDPFFPGDYWGQGTQVTVSS V domain 2: QVQLVESGGDLVLPGGSLKLSCEASGSISSRNSMAWYRRAPGKQRELVAAISSISSGGRTDYADFVKGRFTIFRDTAKNMVYLQMNNLKPEDTAVYDCDDPIRVASLAYDDWGQGTQVTVSS
0.46 Abs | 2 fold | DGL295 (bispecific antibody, V domains shown) V domain 1: QVQLQESGGGLVQPGGSARLSCVASGIIFNDYHMGWYRQAPGKQRDLVAGITAGGSTTYADSVKGRFTISRDNAKHTVYLQMNNLSPEDTAVYYCNTFYNAILDWGKGTLVTVSS V domain 2: QVQLVESGGDLVLPGGSLKLSCEASGSISSRNSMAWYRRAPGKQRELVAAISSISSGGRTDYADFVKGRFTIFRDTAKNMVYLQMNNLKPEDTAVYDCDDPIRVASLAYDDWGQGTQVTVSS
0.63 Abs | 2.7 fold | DGL297 (bispecific antibody, V domains shown) V domain 1: QVQLVESGGGLVQAGGSLRLSCAASGRTFSSYTMGWFRQAPGKEREFVAAISWSAGRTYYADSVKGRFTISRDNAKNTVYLQMNSLKPEDTAVYFCAAEEAPDWAPIDCSGYGCLSLYDYWGQGTQVTVSS V domain 2: QVQLVESGGDLVLPGGSLKLSCEASGSISSRNSMAWYRRAPGKQRELVAAISSISSGGRTDYADFVKGRFTIFRDTAKNMVYLQMNNLKPEDTAVYDCDDPIRVASLAYDDWGQGTQVTVSS
2.1 Abs | 8.6 fold | DGL245 (bispecific antibody, V domains shown) V domain 1: EVQLVESGGGLVQPGGSLRLSCAASGFTLDYYTIGWFRQAPGKEREGVSCISSSGGSTNYADYVKGRFTISRDNAKNTVSLQMNSLKPEDTAVYYCAAESLIPLVETMCVMSVDDYDYWGQGTQVTVSS V domain 2: QLQLVESGGGLVQAGGSLRLSCAASRSITFSHNVMGWYRQAPGKQRELVASIGSGGSTNYVDSVKGRATISRDNAKKTVYLQMNSLKPEDTAVYYCGVVVGVYRGSLGQGTQVTVSS
0.53 Abs | 2.2 fold | DGL247 (bispecific antibody, V domains shown) V domain 1: QVQLVESGGGSVQAGDSLRLSCAGSGRTFSSYVLGWFRQAPGKEREFVASISWSGDGTYYADSVKGRFTISRDNAENMVYLQMNSLKPEDTAVYYCAADGTTALAMSRLDASTYDFDYWGQGTQVTVSS V domain 2: QLQLVESGGGLVQAGGSLRLSCAASRSITFSHNVMGWYRQAPGKQRELVASIGSGGSTNYVDSVKGRATISRDNAKKTVYLQMNSLKPEDTAVYYCGVVVGVYRGSLGQGTQVTVSS
0.12 Abs | 0.5 fold | DGL249 (bispecific antibody, V domains shown) V domain 1: QVQLVESGGGLVQPGGSLRLSCTASGSDLHHYAIGWFRQAPGKEREGVSCISTTGAGTNYADSVKGRFTISRDNAKNTVYLQMDSLKPEETAVYYCAADGPSAIAGCVRTVASMYRYWGQGAQVTVSS V domain 2: QLQLVESGGGLVQAGGSLRLSCAASRSITFSHNVMGWYRQAPGKQRELVASIGSGGSTNYVDSVKGRATISRDNAKKTVYLQMNSLKPEDTAVYYCGVVVGVYRGSLGQGTQVTVSS
0.44 Abs | 1.8 fold | DGL248 (bispecific antibody, V domains shown) V domain 1: QLQLVESGGGLVQPGGSLRLSCAASGFTLDYYAISWFRQVPGKEREGVSCISSNGGSTAYADSVKGRFTISRDNTKNTAYLQMNSLKPEDTAIYYCAASARTIQAMCQRSNFPTRYDYWGQGTQVTVSS V domain 2: QLQLVESGGGLVQAGGSLRLSCAASRSITFSHNVMGWYRQAPGKQRELVASIGSGGSTNYVDSVKGRATISRDNAKKTVYLQMNSLKPEDTAVYYCGVVVGVYRGSLGQGTQVTVSS
0.42 Abs | 1.7 fold | DGL256 (bispecific antibody, V domains shown) V domain 1: QVQLVESGGGLVQPGGSLRLSCTASGSDLHHYAIGWFRQAPGKEREGVSCISTTGAGTNYADSVKGRFTISRDNAKNTVYLQMDSLKPEETAVYYCAADGPSAIAGCVRTVASMYRYWGQGAQVTVSS V domain 2: QVQLVESGGGLVQPGGSLRLSCAASRITFSIYDMGWYRQAPGKQRELVASITRRGSTNYADSTKGRFTISRDNGKNTMYLQGNSLKPEDTAVYYCNARDILGRDYWGQGTQVTVSS
